# B1: GST-tagged ENTH domain of rat epsin 1 (protein)
# chain: MSTSSLRRQMKNIVHNYSEAEIKVREATSNDPWGPSSSLMSEIADLTYNVVAFSEIMSMIWKRLNDHGKNWRHVYKAMTLMEYLIKTGSERVSQQCKENMYAVQTLKDFQYVDRDGKDQGVNVREKAKQLVALLRDEDRLREER
# Molecular target: F-actin (polymerized rabbit muscle G-actin) (Oryctolagus cuniculus (Rabbit), UniProt P68135)
# Assay: F-actin co-sedimentation
binder,measurement,value
B1,binding result,no binding

# From PMC4161027 (2014)
